According to article PMC4619763, “A Novel Highly Thermostable Multifunctional Beta-Glycosidase from Crenarchaeon Acidilobus saccharovorans” (Archaea, 2015):

Legend:
Asac_1390 = target: T1, Asac_1390 (Acidilobus saccharovorans, UniProt D9PZ08); experiment: oNPGal hydrolysis, Cornish-Bowden and Dixon plots; type: biochemical; details: mixed inhibition, dissociation constant of the EIS complex; otherwise as the row above
T1 construct: full length, 490 residues, about 55 kDa on SDS-PAGE; pQE60 NcoI/BglII, expressed in E. coli DLT1270 pRARE2; purified by double heat treatment; no secretion signal; no tag mentioned (reverse primer carries the stop codon)
T1 sequence (D9PZ08 1-490): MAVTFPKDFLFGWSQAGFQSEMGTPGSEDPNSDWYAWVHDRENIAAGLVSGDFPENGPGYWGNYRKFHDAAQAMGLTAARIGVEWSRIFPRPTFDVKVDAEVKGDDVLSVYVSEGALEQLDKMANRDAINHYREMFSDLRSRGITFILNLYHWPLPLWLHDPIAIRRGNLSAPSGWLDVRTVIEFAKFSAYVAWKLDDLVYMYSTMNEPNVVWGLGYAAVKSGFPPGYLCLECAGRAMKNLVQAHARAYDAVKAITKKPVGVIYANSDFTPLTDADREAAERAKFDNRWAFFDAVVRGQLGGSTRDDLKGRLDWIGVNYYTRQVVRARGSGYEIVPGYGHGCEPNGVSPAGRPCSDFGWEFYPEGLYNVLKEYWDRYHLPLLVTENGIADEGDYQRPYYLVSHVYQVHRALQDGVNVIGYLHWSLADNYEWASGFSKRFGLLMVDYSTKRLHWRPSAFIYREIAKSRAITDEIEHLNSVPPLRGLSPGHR

purified protein [1] = substrate: O=[N+]([O-])c1ccc(O[C@@H]2OC[C@@H](O)[C@H](O)[C@H]2O)cc1; experiment: purified protein; type: biochemical, Acidilobus saccharovorans; details: 0.1 M sodium phosphate pH 7.0, 93°C
purified protein [2] = substrate: O=[N+]([O-])c1ccc(O[C@@H]2O[C@H](CO)[C@@H](O)[C@H](O)[C@@H]2O)cc1; experiment: purified protein; type: biochemical, Acidilobus saccharovorans; details: 0.1 M sodium phosphate pH 7.0, 93°C
purified protein [3] = substrate: O=[N+]([O-])c1ccc(O[C@@H]2O[C@H](CO)[C@@H](O)[C@H](O)[C@H]2O)cc1; experiment: purified protein; type: biochemical, Acidilobus saccharovorans; details: 0.1 M sodium phosphate pH 7.0, 93°C
purified protein [4] = substrate: O=[N+]([O-])c1ccccc1O[C@@H]1O[C@H](CO)[C@H](O)[C@H](O)[C@H]1O; experiment: purified protein; type: biochemical, Acidilobus saccharovorans; details: 0.1 M sodium phosphate pH 7.0, 93°C
purified protein [5] = substrate: O=[N+]([O-])c1ccc(O[C@@H]2O[C@H](CO)[C@H](O)[C@H](O)[C@H]2O)cc1; experiment: purified protein; type: biochemical, Acidilobus saccharovorans; details: 0.1 M sodium phosphate pH 7.0, 93°C

Molecule: OC[C@H]1OC(O)[C@H](O)[C@@H](O)[C@@H]1O (stereo partly drawn) [glucose]
- K i′ (Asac_1390): 158 mM

B1: Asac_1390 (Acidilobus saccharovorans 345-15) (protein)
chain: MAVTFPKDFLFGWSQAGFQSEMGTPGSEDPNSDWYAWVHDRENIAAGLVSGDFPENGPGYWGNYRKFHDAAQAMGLTAARIGVEWSRIFPRPTFDVKVDAEVKGDDVLSVYVSEGALEQLDKMANRDAINHYREMFSDLRSRGITFILNLYHWPLPLWLHDPIAIRRGNLSAPSGWLDVRTVIEFAKFSAYVAWKLDDLVYMYSTMNEPNVVWGLGYAAVKSGFPPGYLCLECAGRAMKNLVQAHARAYDAVKAITKKPVGVIYANSDFTPLTDADREAAERAKFDNRWAFFDAVVRGQLGGSTRDDLKGRLDWIGVNYYTRQVVRARGSGYEIVPGYGHGCEPNGVSPAGRPCSDFGWEFYPEGLYNVLKEYWDRYHLPLLVTENGIADEGDYQRPYYLVSHVYQVHRALQDGVNVIGYLHWSLADNYEWASGFSKRFGLLMVDYSTKRLHWRPSAFIYREIAKSRAITDEIEHLNSVPPLRGLSPGHR
notes: full length, 490 residues, about 55 kDa on SDS-PAGE; pQE60 NcoI/BglII, expressed in E. coli DLT1270 pRARE2; purified by double heat treatment; no secretion signal; no tag mentioned (reverse primer carries the stop codon)
- Km (purified protein [1]): 4650 µM
- Vmax (purified protein [1]): 124 µmol/min/mg
- kcat (purified protein [1]): 115 s⁻¹
- kcat/Km (purified protein [1]): 24600 M⁻¹ s⁻¹
- Km (purified protein [2]): 2400 µM
- Vmax (purified protein [2]): 62.8 µmol/min/mg
- kcat (purified protein [2]): 58.2 s⁻¹
- kcat/Km (purified protein [2]): 24200 M⁻¹ s⁻¹
- Km (purified protein [3]): 240 µM
- Vmax (purified protein [3]): 344 µmol/min/mg
- kcat (purified protein [3]): 318 s⁻¹
- kcat/Km (purified protein [3]): 1.33e+06 M⁻¹ s⁻¹
- Km (purified protein [4]): 2000 µM
- Vmax (purified protein [4]): 469 µmol/min/mg
- kcat (purified protein [4]): 434 s⁻¹
- kcat/Km (purified protein [4]): 217000 M⁻¹ s⁻¹
- Km (purified protein [5]): 2900 µM
- Vmax (purified protein [5]): 499 µmol/min/mg
- kcat (purified protein [5]): 462 s⁻¹
- kcat/Km (purified protein [5]): 160000 M⁻¹ s⁻¹
